The source of these data is patent US20060239990A1, “Protein Arginine N-Methyltransferase 2 (PRMT-2)” (priority 2003, published 2006).

One experiment has as its target T1, GST-Stat3 (Mus musculus, UniProt P42227).
T1 construct: The same region with the Arg31→Ala mutant was generated from the wild-type pGEX6P-3 STAT3 construct; made in house; host or cells: E. coli (BL21 (DE3); Top10 One Shot)
As to the kind of experiment: In vitro methylation assay of GST-Stat3. In kind it is biochemical. Conditions: Flag fusion protein from transfected HEK293 cells, [3H]-AdoMet. As for the experimental part: 293 cells were transiently transfected with expression vectors encoding Flag-tagged wild-type or mutant mouse PRMT2. After incubation for 48 hr, cells were lysed with 500 μl of RIPA buffer and 1.8 mg of 293 cell lysates was incubated with 40 μl of Anti-Flag M2 Affinity Gel (Sigma) for 3 hr at 4° C. Immune complexes were washed three times with lysis buffer without proteinase inhibitor and subjected to in vitro methylation reaction. Mouse fibroblasts were grown to 80% confluence on a 10 cm plate. Cells were washed and scraped off the plate into 500 μl of PBS (pH 7.4), and were lysed by sonication. After centrifugation at 15,000 rpm for 10 min at 4° C., the supernatants were used as the enzyme source. In vitro methylation reactions were performed by adding the immune complexes or cell lysates to 0.64 μg Histone and/or 1 μg of GST, GST-STAT3 or GST-STAT3 Arg31→Ala31 using 2 μCi of the methyl donor S-adenosyl-1[methyl-3H]methionine ([3H]-AdoMet) (Amersham Biosciences) in a final volume of 35 μl. The reactions were incubated for 1 hr at 4° C. and were terminated by addition of 3×SDS-loading buffer. […]

In the next experiment the test system is STAT3. Nature of the experiment: STAT3 arginine methylation in transfected HEK293 cells. Conditions: 24 hr after transfection, α-metR immunoblot. In kind it is cell-based. As for the experimental part: Vascular smooth muscle cells (VSMC) were prepared from the thoracic aorta of 12-week-old-male wild-type and PRMT-2^−/− mice by the explant method. Mouse embryo fibroblasts (MEFs) were prepared from 13.5-day wild-type and PRMT-2^−/− embryos. VSMCs and MEFs were cultured in Dulbecco's modified Eagle's medium (DMEM) containing 10% fetal calf serum (FCS) at 37° C. in a humidified atmosphere of 95% air-5% CO2. The integrity of PRMT-2 expression in the established VSMCs and MEFs lines was confirmed by Western and immunofluorescence analysis (data not shown). Quiescent VSMC (3-5th passages) that had been serum-starved for 48 hr were used in the following experiments. HEK293 cells were also grown in DMEM plus 10% FCS and were transiently transfected with FuGENE6 transfection reagent (Roche Applied Science, Indianapolis, Ind.) according to the manufacture's protocol. For each transfection, 2 μg of expression construct for mouse PRMT-2 and 8 μg for mouse STAT3 were used. After 24-48 hr of transfection, cells were used for the following experiments.
Immunoprecipitation of STAT3 was performed as follows. […]

T1 sequence (P42227 1-131 limits assumed): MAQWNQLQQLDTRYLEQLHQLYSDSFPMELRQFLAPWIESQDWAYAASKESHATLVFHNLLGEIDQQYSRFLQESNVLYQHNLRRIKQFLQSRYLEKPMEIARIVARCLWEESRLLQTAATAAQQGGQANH

B1: PRMT2-Flag: Flag-tagged wild-type mouse PRMT2 fusion protein purified from transfected HEK293 cells (protein)
chain: MEAPGEGPCSESQVIPVLEEDPVDYGCEMQLLQDGAQLQLQLQPEEFVAIADYTATDETQLSFLRGEKILILRQTTADWWWGERAGCCGYIPANHLGKQLEEYDPEDTWQDEEYFDSYGTLKLHLEMLADQPRTTKYHSVILQNKESLKDKVILDVGCGTGIISLFCAHHARPKAVYAVEASDMAQHTSQLVLQNGFADTITVFQQKVEDVVLPEKVDVLVSEWMGTCLLFEFMIESILYARDTWLKGDGIIWPTTAALHLVPCSAEKDYHSKVLFWDNAYEFNLSALKSLAIKEFFSRPKSNHILKPEDCLSEPCTILQLDMRTVQVPDLETMRGELRFDIQKAGTLHGFTAWFSVYFQSLEEGQPQQVVSTGPLHPTTHWKQTLFMMDDPVPVHTGDVVHGFCCVTKKSGMEKAHVCLSELGCHVRTRSHVSTELETGSFRSGGDS
modifications: left off: small tags and cut ends
notes: Flag-tagged wild-type mouse PRMT2 fusion protein purified from transfected HEK293 cells
For B1, the “methylation of GST-Stat3” value with GST-Stat3 was “could methylate GST-Stat3”.

B2: mutant PRMT-2: mutated PRMT-2 lacking functional Ado-Met domain (the PRMT-2-4A mutant according to b407) (protein)
chain: MATSGDCPRSESQGEEPAECSEAGLLQEGVQPEEFVAIADYAATDETQLSFLRGEKILILRQTTADWWWGERAGCCGYIPANHVGKHVDEYDPEDTWQDEEYFGSYGTLKLHLEMLADQPRTTKYHSVILQNKESLTDKVAAAAGCGTGIISLFCAHYARPRAVYAVEASEMAQHTGQLVLQNGFADIITVYQQKVEDVVLPEKVDVLVSEWMGTCLLFEFMIESILYARDAWLKEDGVIWPTMAALHLVPCSADKDYRSKVLFWDNAYEFNLSALKSLAVKEFFSKPKYNHILKPEDCLSEPCTILQLDMRTVQISDLETLRGELRFDIRKAGTLHGFTAWFSVHFQSLQEGQPPQVLSTGPFHPTTHWKQTLFMMDDPVPVHTGDVVTGSVVLQRNPVWRRHMSVALSWAVTSRQDPTSQKVGEKVFPIWR
Consider B2, for which, in the experiment on STAT3, the Stat3 methylation entry was “failed to evoke STAT3 methylation”.
